The record followed here is US20200347133A1 (INHIBRX, published 2020).

One may read the EC50 (read off the curve) as the concentration at which the effect is half-maximal.

Changes are numbered by the printed parent chain.

For experiment [1], the target named is T1, CD33M, full length human CD33 protein expressed on transfected cells (human, UniProt P20138 18-303).
T1 construct: also called full length CD33
Put plainly: flow cytometry on cells transfected with CD33M; apparent Kd, one-site fit. On the procedure:
(§1) Binding of sdAbs to human CD33 was assessed by flow cytometry. […] MOLM-13 cells were transiently transfected with a plasmid encoding a sequence comprising “CD33M” (SEQ ID NO: 112) or a plasmid encoding a sequence comprising a truncated version, “CD33m” (SEQ ID NO: 113). The sequence encoded by the CD33M plasmid includes the leader sequence, full extracellular domain, transmembrane domain, and cytoplasmic domain. The sequence encoded by the CD33m plasmid includes the leader sequence, the membrane proximal IgC2 domain, and the transmembrane domain. Untransfected HEK 293 cells were used as CD33-negative cells. Each cell type was plated at 30,000 cells/well in FACS buffer (PBS 1% BSA, 0.1% NaN₃ pH 7.4) on a 96-well round-bottom plate. The sdAbs were diluted in FACS buffer in a 3-fold, 11 point serial dilution. The sdAb dilutions were added to the plated cells, and assay plates were incubated for 30 minutes at 4° C. After washing twice in 150 μL of FACS buffer, cells in each well were resuspended in 100 μL of 1:2000 Alexa Fluor 647-conjugated Anti-Human IgG secondary diluted in FACS buffer and incubated at 4° C. for 30 minutes. The cells were washed twice more, then bound antibody was detected by flow cytometry.
(§2) Flow cytometric analysis was performed on an Intellicyte iQue Plus and fluorescence was plotted as median fluorescence intensity. The apparent affinity (Kd, nM) was determined using one site binding non-linear regression in PRISM graph software.

Experiment [2] concerns the target T1, CD33M, full length human CD33 protein …. Put plainly: flow cytometry on MOLM-13 cells transfected with CD33 (CD33M per Table 3), anti-human IgG Alexa Fluor 647 secondary, median fluorescence. On the procedure:
as §1, §2

For experiment [3] the target is unchanged. Kind of experiment: flow cytometry on cells labelled CD33M-HEK-293, anti-human IgG Alexa Fluor 647 secondary, median fluorescence. On the procedure:
Binding of sdAbs to human CD33 was assessed by flow cytometry. […] […] The sequence encoded by the CD33M plasmid includes the leader sequence, full extracellular domain, transmembrane domain, and cytoplasmic domain. The sequence encoded by the CD33m plasmid includes the leader sequence, the membrane proximal IgC2 domain, and the transmembrane domain. Untransfected HEK 293 cells were used as CD33-negative cells. Each cell type was plated at 30,000 cells/well in FACS buffer (PBS 1% BSA, 0.1% NaN₃ pH 7.4) on a 96-well round-bottom plate. The sdAbs were diluted in FACS buffer in a 3-fold, 11 point serial dilution. The sdAb dilutions were added to the plated cells, and assay plates were incubated for 30 minutes at 4° C. After washing twice in 150 μL of FACS buffer, cells in each well were resuspended in 100 μL of 1:2000 Alexa Fluor 647-conjugated Anti-Human IgG secondary diluted in FACS buffer and incubated at 4° C. for 30 minutes. The cells were washed twice more, then bound antibody was detected by flow cytometry.
as §2
For orientation: Flow cytometry measures light scatter and fluorescence of single cells or particles in a stream.

Experiment [4] deals with T2, CD33m, truncated human CD33 protein expressed on transfected cells (human, UniProt P20138 140-259).
T2 construct: leader and transmembrane domain are not in it; also called truncated CD33
T2 sequence (P20138 140-259 limits assumed): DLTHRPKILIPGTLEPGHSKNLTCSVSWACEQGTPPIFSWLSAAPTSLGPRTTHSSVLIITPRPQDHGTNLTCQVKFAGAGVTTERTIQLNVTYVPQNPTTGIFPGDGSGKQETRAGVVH
Put plainly: flow cytometry on cells transfected with truncated CD33m; apparent Kd, one-site fit. On the procedure:
as §1, §2

T1 sequence (P20138 18-303): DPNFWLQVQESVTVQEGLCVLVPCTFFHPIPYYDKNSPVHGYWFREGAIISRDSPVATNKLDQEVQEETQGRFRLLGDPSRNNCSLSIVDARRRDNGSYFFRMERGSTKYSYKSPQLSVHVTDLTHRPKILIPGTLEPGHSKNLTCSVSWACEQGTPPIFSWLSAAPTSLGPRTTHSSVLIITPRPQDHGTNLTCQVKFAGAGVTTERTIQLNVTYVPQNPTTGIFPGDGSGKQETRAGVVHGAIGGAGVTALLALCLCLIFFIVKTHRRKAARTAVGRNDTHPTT

B1: 1G3 sdAb (1G3 VHH domain fused to human IgG1 xELL Fc region) (Fc fusion)
chain: EVQLQQSGGGEVQPGGSLRLSCEASGFTFSSYAMGWFRQAPGKGREWVAAITTSGDTTYYAESVKGRFTISRDNAKNTVYLQMSSLRAEDTAVYYCAAHRGGGVIDYWGQGTQVTVDKTHTCPPCPAPGGPSVFLFPPKPKDTLMISRTPEVTCVVVDVSHEDPEVKFNWYVDGVEVHNAKTKPREEQYNSTYRVVSVLTVLHQDWLNGKEYKCKVSNKALPAPIEKTISKAKGQPREPQVYTLPPSRDELTKNQVSLTCLVKGFYPSDIAVEWESNGQPENNYKTTPPVLDSDGSFFLYSKLTVDKSRWQQGNVFSCSVMHEALHNHYTQKSLSLSPGK
notes: VHH-Fc; no linker stated
As for B1, in experiment [1], the Kd was 0.49 nM.

B2: hz1G3v3 sdAb (hz1G3v3 VHH domain fused to human IgG1 xELL Fc region) (Fc fusion)
chain: B1 chain with Q5V, Q6E, E23A, Q113L
notes: VHH-Fc; no linker stated; also called hz1G3v3-IgG1
As to B2, the Kd in experiment [1] is 1.6 nM. In addition, in experiment [2], the concentration giving a half-maximal response (EC50 (read off the curve)) was approximately 2 nM.

B3: 1C7 sdAb (1C7 VHH domain fused to human IgG1 xELL Fc region) (Fc fusion)
chain: QVQLQQSGGGLVQAGGSLRLSCAASGRTFSGYIMGWFRQVPGKERELVARISGNNLSTEYGGSVKGRFTISRDSAKETMYLQMNSLKPEDTAIYYCAAEYDYSSGDFVYWGQGTQVTVDKTHTCPPCPAPGGPSVFLFPPKPKDTLMISRTPEVTCVVVDVSHEDPEVKFNWYVDGVEVHNAKTKPREEQYNSTYRVVSVLTVLHQDWLNGKEYKCKVSNKALPAPIEKTISKAKGQPREPQVYTLPPSRDELTKNQVSLTCLVKGFYPSDIAVEWESNGQPENNYKTTPPVLDSDGSFFLYSKLTVDKSRWQQGNVFSCSVMHEALHNHYTQKSLSLSPGK
notes: VHH-Fc; no linker stated; also called 1C7-IgG1
B3: the Kd in experiment [1] amounted to 6.64 nM.

B4: G11 sdAb (G11 VHH domain fused to human IgG1 xELL Fc region) (Fc fusion)
chain: EVQLVQSGGGSVQVGGSLRLSCAASGSTLNIDHIGWYRQAPGKERELVGVISSGAGPNYADSVKGRFTISRDNAKNTVYLQMNSLKPEDTAVYNCNAWIDYGSGLPQNYWGQGTQVTVDKTHTCPPCPAPGGPSVFLFPPKPKDTLMISRTPEVTCVVVDVSHEDPEVKFNWYVDGVEVHNAKTKPREEQYNSTYRVVSVLTVLHQDWLNGKEYKCKVSNKALPAPIEKTISKAKGQPREPQVYTLPPSRDELTKNQVSLTCLVKGFYPSDIAVEWESNGQPENNYKTTPPVLDSDGSFFLYSKLTVDKSRWQQGNVFSCSVMHEALHNHYTQKSLSLSPGK
notes: VHH-Fc; no linker stated
As for B4, the Kd in experiment [1] was 1.1 nM.

B5: hzG11v2 sdAb (hzG11v2 VHH domain fused to human IgG1 xELL Fc region) (Fc fusion)
chain: B4 chain with Q6E, S11E, V14P, D61E, N83S, K86R, P87A, N94Y, Q115L
notes: VHH-Fc; no linker stated; also called hzG11v2-IgG1
B5: in experiment [1], the Kd came out at 2.67 nM. Further, the “EC50 (read off the curve)” value in experiment [3] was approximately 2 nM.

B6: hz1E4v2 sdAb (hz1E4v2 VHH domain fused to human IgG1 xELL Fc region) (Fc fusion)
chain: EVQLVESGGGEVQPGGSLRLSCAASGSGFSASLMSWHRQAPGKQRDLVASITRDGRANYVESVKGRFTISRDNAKNTLYLQMSSLRAEDTAVYYCHAYSFDYPIRSYWGQGTLVTVDKTHTCPPCPAPGGPSVFLFPPKPKDTLMISRTPEVTCVVVDVSHEDPEVKFNWYVDGVEVHNAKTKPREEQYNSTYRVVSVLTVLHQDWLNGKEYKCKVSNKALPAPIEKTISKAKGQPREPQVYTLPPSRDELTKNQVSLTCLVKGFYPSDIAVEWESNGQPENNYKTTPPVLDSDGSFFLYSKLTVDKSRWQQGNVFSCSVMHEALHNHYTQKSLSLSPGK
notes: VHH-Fc; no linker stated; also called hz1E4v2-IgG1
Regarding B6, in experiment [1], the Kd was 0.32 nM. The “EC50 (read off the curve)” value in experiment [2] was approximately 0.3 nM.

B7: hz1H9v2 sdAb (hz1H9v2 VHH domain fused to human IgG1 xELL Fc region) (Fc fusion)
chain: EVQLVESGGGEVQPGGSLRLSCAASGSIFSISIMGWYRQAPGKERELVASTTSSGTTNYVESVKGRFTISRDNAKNTLYLQMSSLRAEDTAVYYCHAYIATTTDRGYRGYWGQGTLVTVDKTHTCPPCPAPGGPSVFLFPPKPKDTLMISRTPEVTCVVVDVSHEDPEVKFNWYVDGVEVHNAKTKPREEQYNSTYRVVSVLTVLHQDWLNGKEYKCKVSNKALPAPIEKTISKAKGQPREPQVYTLPPSRDELTKNQVSLTCLVKGFYPSDIAVEWESNGQPENNYKTTPPVLDSDGSFFLYSKLTVDKSRWQQGNVFSCSVMHEALHNHYTQKSLSLSPGK
notes: VHH-Fc; no linker stated; also called hz1H9v2-IgG1
On to B7, for which, in experiment [1], the Kd turned out to be 0.27 nM. Further, the “EC50 (read off the curve)” value in experiment [2] was approximately 0.3 nM.

B8: hzB07v7 sdAb (hzB07v7 VHH domain fused to human IgG1 xELL Fc region) (Fc fusion)
chain: EVQLVESGGGEVQPGGSLRLSCAASGRTISDYVVGWFRQAPGKERAFVAAISRYGTTYYAASVQGRFTISRDNPRNTVYLQVDSLRAEDTAVYYCAALQNDVRNNHSPTSYDYWGQGTLVTVDKTHTCPPCPAPGGPSVFLFPPKPKDTLMISRTPEVTCVVVDVSHEDPEVKFNWYVDGVEVHNAKTKPREEQYNSTYRVVSVLTVLHQDWLNGKEYKCKVSNKALPAPIEKTISKAKGQPREPQVYTLPPSRDELTKNQVSLTCLVKGFYPSDIAVEWESNGQPENNYKTTPPVLDSDGSFFLYSKLTVDKSRWQQGNVFSCSVMHEALHNHYTQKSLSLSPGK
notes: VHH-Fc; no linker stated; also called hzB07v7-IgG1
Turning to B8, in experiment [1], the Kd worked out at 0.75 nM. Besides, the “EC50 (read off the curve)” value in experiment [3] was approximately 0.7 nM.

B9: F02 sdAb (F02 VHH domain fused to human IgG1 xELL Fc region) (Fc fusion)
chain: QVQLVQSGGGLVQAGGSLRLSCAASGSISSYNVVGWYRQLSGNERGGRTMVAQINAYGDTNYANAVVGRFTISRDDAKNTVYLHMSNLKPEDTGVYYCNGQRMLENYTYRDQSWGQGTQVTVDKTHTCPPCPAPGGPSVFLFPPKPKDTLMISRTPEVTCVVVDVSHEDPEVKFNWYVDGVEVHNAKTKPREEQYNSTYRVVSVLTVLHQDWLNGKEYKCKVSNKALPAPIEKTISKAKGQPREPQVYTLPPSRDELTKNQVSLTCLVKGFYPSDIAVEWESNGQPENNYKTTPPVLDSDGSFFLYSKLTVDKSRWQQGNVFSCSVMHEALHNHYTQKSLSLSPGK
notes: VHH-Fc; no linker stated; also called F02-IgG1
Regarding B9, the Kd was determined as 15.2 nM in experiment [1] and 5.15 nM in experiment [4].

B10: 1E4 sdAb (1E4 VHH domain fused to human IgG1 xELL Fc region) (Fc fusion)
chain: QVQLQQSGGGSVQAGGSLRLSCVASGSGFSASLMSWHRQAPGSQRDLVASITRDGRANYVDSVKDRFTISRDNAKNTAYLQMDSLKPEDTAAYYCHAYSFDYPIRSYWGQGTQVTVDKTHTCPPCPAPGGPSVFLFPPKPKDTLMISRTPEVTCVVVDVSHEDPEVKFNWYVDGVEVHNAKTKPREEQYNSTYRVVSVLTVLHQDWLNGKEYKCKVSNKALPAPIEKTISKAKGQPREPQVYTLPPSRDELTKNQVSLTCLVKGFYPSDIAVEWESNGQPENNYKTTPPVLDSDGSFFLYSKLTVDKSRWQQGNVFSCSVMHEALHNHYTQKSLSLSPGK
notes: VHH-Fc; no linker between VHH and Fc is stated; also called 1E4-IgG1
As to B10, in experiment [1], the Kd came to 0.05 nM. In addition, the “EC50 (read off the curve)” value in experiment [2] was approximately 0.07 nM.

B11: 1H9 sdAb (1H9 VHH domain fused to human IgG1 xELL Fc region) (Fc fusion)
chain: EVQLQQSGGAVVQPGGSLRLSCAASGSIFSISIMGWYRQAPGKERELVASTTSSGTTNYVDSVKGRFTASRDNAKNTVYLQMNSLKPDDTAIYHCHAYIATTTDRGYRGYWGQGTQVTVDKTHTCPPCPAPGGPSVFLFPPKPKDTLMISRTPEVTCVVVDVSHEDPEVKFNWYVDGVEVHNAKTKPREEQYNSTYRVVSVLTVLHQDWLNGKEYKCKVSNKALPAPIEKTISKAKGQPREPQVYTLPPSRDELTKNQVSLTCLVKGFYPSDIAVEWESNGQPENNYKTTPPVLDSDGSFFLYSKLTVDKSRWQQGNVFSCSVMHEALHNHYTQKSLSLSPGK
notes: VHH-Fc; no linker stated; also called 1H9-IgG1
For B11, in experiment [1], the Kd came to 0.14 nM. Moreover, the “EC50 (read off the curve)” value in experiment [2] is approximately 0.2 nM.
